These results are taken from patent publication US20040101829A1 (UNIVERSITY OF IOWA RESEARCH FOUNDATION, published 2004).

B1: Purified recombinant HCV envelope glycoprotein E2 (Ala 384-Lys 715) (other)
chain: ETHVTGGSAGHTVSGFVSLLAPGAKQNVQLINTNGSWHLNSTALNCNDSLNTGWLAGLFYHHKFNSSGCPERLASCRPLTDFDQGWGPISYANGSGPDQRPYCWHYPPKPCGIVPAKSVCGPVYCFTPSPVVVGTTDRSGAPTYSWGENDTDVFVLNNTRPPLGNWFGCTWMNSTGFTKVCGAPPCVIGGAGNNTLHCPTDCFRKHPDATYSRCGSGPWITPRCLVDYPYRLWHYPCTINYTIFKIRMYVGGVEHRLEAACNWTRGERCDLEDRDRSELSPLLLTTTQWQVLPCSFTTLPALSTGLIHLHQNIVDVQYLYGVGSSIASWAIK
notes: also called HCV E2; HCV-E2

The target of test [1] is T1, apoprotein B (apoB100), delipidized protein (human, UniProt P04114 28-4563).
T1 construct: also called apo-B delipidized protein; apoprotein apoB100
T1 sequence (P04114 28-4563 limits assumed): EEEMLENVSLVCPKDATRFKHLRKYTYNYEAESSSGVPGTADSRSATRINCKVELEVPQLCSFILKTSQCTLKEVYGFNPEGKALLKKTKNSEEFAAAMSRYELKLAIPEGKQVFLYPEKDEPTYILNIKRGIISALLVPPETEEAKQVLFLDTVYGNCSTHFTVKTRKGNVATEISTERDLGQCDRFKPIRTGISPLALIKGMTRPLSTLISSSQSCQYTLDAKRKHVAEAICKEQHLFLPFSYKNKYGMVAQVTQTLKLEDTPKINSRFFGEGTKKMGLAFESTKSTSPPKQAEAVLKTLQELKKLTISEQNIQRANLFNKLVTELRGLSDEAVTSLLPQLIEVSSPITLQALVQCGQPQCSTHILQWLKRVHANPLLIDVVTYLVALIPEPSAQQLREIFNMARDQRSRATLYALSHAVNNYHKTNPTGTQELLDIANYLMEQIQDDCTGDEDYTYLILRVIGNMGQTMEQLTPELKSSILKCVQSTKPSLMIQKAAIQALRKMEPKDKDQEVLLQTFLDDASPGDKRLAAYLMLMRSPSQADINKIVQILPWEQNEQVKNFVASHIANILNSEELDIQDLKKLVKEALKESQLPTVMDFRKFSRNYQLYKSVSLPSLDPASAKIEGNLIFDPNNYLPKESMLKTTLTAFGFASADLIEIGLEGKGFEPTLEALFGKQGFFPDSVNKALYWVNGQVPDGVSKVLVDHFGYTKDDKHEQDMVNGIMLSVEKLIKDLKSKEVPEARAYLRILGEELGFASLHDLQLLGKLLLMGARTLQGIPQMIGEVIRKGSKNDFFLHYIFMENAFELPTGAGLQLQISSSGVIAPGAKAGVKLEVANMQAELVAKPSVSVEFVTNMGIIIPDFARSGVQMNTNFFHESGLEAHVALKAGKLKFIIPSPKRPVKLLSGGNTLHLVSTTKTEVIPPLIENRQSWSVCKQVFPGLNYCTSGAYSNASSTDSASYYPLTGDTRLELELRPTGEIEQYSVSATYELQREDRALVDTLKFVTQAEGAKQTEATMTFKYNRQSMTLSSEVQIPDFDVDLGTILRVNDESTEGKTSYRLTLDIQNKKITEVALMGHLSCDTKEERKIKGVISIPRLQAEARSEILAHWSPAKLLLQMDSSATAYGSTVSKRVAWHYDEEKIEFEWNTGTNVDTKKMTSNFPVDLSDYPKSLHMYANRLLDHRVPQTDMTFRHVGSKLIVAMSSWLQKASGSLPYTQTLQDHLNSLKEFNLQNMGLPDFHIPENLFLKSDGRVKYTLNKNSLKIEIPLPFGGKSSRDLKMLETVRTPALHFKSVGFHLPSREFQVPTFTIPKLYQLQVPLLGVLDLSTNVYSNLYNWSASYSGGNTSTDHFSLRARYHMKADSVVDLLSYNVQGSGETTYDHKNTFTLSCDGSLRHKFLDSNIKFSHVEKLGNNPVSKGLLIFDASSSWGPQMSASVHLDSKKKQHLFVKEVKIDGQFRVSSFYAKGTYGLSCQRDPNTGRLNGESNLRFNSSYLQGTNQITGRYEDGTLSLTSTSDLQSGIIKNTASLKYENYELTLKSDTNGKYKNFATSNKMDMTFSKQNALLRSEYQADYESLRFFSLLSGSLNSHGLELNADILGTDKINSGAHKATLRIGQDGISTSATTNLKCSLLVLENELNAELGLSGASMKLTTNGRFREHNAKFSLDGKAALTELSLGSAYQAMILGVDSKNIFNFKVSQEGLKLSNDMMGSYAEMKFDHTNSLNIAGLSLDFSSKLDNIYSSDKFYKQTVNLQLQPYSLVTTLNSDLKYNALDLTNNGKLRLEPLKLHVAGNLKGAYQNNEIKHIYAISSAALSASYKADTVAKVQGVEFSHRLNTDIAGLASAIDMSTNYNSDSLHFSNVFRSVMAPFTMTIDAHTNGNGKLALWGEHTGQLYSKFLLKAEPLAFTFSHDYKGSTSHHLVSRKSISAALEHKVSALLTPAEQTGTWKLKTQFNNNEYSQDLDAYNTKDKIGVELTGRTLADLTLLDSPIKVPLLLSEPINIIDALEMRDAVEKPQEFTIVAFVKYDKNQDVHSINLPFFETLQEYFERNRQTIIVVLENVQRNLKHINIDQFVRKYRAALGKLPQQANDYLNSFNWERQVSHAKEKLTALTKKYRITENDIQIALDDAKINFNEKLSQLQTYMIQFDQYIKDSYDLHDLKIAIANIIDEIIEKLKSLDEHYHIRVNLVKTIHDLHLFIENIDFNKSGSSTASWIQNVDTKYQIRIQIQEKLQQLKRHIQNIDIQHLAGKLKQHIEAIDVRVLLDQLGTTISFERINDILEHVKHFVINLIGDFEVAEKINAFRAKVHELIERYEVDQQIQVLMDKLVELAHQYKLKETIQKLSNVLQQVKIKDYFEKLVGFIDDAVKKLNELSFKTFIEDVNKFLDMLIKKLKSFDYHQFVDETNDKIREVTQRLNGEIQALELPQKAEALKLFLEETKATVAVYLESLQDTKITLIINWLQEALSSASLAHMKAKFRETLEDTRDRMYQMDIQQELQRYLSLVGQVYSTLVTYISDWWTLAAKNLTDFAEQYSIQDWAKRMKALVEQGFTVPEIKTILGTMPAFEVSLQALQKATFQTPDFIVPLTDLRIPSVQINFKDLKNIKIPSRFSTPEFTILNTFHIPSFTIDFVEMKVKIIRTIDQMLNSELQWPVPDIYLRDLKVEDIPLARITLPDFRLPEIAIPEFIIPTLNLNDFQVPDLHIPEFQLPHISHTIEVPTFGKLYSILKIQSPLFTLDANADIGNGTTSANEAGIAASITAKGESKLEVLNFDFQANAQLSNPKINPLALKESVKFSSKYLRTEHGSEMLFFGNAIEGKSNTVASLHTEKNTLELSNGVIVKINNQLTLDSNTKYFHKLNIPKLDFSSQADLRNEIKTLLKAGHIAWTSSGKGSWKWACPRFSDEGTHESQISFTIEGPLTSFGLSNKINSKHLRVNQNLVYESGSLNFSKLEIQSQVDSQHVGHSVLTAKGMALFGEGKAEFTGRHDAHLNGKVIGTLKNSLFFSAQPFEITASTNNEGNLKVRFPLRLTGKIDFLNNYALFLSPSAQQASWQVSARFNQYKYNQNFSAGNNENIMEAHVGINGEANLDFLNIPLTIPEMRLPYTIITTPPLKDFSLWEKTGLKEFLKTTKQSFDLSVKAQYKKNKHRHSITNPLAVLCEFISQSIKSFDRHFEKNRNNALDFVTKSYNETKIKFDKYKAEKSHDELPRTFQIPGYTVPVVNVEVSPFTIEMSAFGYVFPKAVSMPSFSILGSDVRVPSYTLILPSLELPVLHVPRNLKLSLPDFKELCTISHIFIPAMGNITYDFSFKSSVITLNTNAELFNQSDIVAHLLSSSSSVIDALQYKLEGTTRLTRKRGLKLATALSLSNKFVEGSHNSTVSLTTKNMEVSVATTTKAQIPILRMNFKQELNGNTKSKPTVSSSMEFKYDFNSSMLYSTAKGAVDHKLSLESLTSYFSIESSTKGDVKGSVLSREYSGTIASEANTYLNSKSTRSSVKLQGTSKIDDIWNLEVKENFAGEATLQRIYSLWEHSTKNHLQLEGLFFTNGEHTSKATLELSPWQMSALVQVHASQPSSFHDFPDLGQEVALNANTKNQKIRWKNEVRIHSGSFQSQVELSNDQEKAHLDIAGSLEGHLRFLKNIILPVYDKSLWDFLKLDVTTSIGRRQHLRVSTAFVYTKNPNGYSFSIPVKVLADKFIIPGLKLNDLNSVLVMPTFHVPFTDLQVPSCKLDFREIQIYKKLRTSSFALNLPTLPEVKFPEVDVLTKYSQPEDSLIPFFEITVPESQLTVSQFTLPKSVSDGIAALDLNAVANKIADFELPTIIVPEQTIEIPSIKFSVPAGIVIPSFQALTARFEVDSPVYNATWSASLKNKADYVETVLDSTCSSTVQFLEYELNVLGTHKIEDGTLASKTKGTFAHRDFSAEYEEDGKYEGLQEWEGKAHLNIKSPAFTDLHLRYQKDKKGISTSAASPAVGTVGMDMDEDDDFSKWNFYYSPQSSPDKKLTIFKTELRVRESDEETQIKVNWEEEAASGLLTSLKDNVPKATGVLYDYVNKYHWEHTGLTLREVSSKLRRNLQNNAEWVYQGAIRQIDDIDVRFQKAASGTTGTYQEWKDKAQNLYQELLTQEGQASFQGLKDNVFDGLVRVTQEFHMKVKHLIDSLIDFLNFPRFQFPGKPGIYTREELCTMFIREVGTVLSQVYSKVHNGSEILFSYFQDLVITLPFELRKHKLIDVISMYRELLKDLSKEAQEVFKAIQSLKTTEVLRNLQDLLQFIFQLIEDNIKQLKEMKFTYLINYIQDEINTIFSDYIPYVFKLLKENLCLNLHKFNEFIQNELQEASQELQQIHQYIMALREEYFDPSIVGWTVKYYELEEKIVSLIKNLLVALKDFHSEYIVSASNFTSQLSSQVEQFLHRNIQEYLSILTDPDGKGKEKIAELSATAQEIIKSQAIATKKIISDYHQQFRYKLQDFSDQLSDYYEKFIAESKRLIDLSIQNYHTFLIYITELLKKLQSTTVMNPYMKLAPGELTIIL
The test can be described thus: flow cytometry on MOLT-4 cells incubated with E2, apo-B delipidized protein and E2/apoB; cell-bound E2 detected with antibody 108. For orientation: Flow cytometry measures light scatter and fluorescence of single cells or particles in a stream.

Test [2] addresses T1, apoprotein B (apoB100), delipidized …. The experiment in a line: flow cytometry on MOLT-4 cells, cell-bound apoB detected with goat polyclonal antibody.
The target of test [3] is B1. The experiment in a line: flow cytometry, recombinant E2 on mouse 3T3 cells expressing only murine CD81.

In the case of B1, the binding result in test [1] is listed as “no binding”.

B2: human low density lipoprotein receptor (LDLr) on MOLT-4 cells (receptor)
chain: not shown
notes: whole, on cells; also called human LDLr; hLDLr
As to B2, in test [2], the binding result is given as “binds”.

B3: murine CD81 on parental (control) mouse 3T3 cells (receptor, UniProt P35762 1-236, looked up)
chain: MGVEGCTKCIKYLLFVFNFVFWLAGGVILGVALWLRHDPQTTSLLYLELGNKPAPNTFYVGIYILIAVGAVMMFVGFLGCYGAIQESQCLLGTFFTCLVILFACEVAAGIWGFVNKDQIAKDVKQFYDQALQQAVMDDDANNAKAVVKTFHETLNCCGSNALTTLTTTILRNSLCPSGGNILTPLLQQDCHQKIDELFSGKLYLIGIAAIVVAVIMIFEMILSMVLCCGIRNSSVY
notes: whole, on cells; also called control 3T3 cells
In the case of B3, in test [3], the binding result is on record as “no binding”.
